The values below come from PMC12412469 (2025).

The target of experiment [1] is T1, Recombinant Human VEGF165 (human, UniProt P15692-4 1-191).
T1 chain: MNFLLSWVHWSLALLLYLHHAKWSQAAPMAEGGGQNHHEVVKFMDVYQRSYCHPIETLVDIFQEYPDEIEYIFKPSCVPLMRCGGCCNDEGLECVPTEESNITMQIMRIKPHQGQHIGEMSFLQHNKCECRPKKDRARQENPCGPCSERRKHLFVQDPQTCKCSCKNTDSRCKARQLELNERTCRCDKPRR

The target in experiment [2] is T1, Recombinant Human VEGF165. Nature of the experiment: SPR.
The target of experiment [3] is T1, Recombinant Human VEGF165. Nature of the experiment: SPR; rhVEGF165 amine-coupled to a CM5 chip; designs injected (multi-cycle kinetics, 60 s injection, 60 s dissociation); PBS with 0.05% Tween-20; 25 °C; 10 µL/min; 1:1 binding assumed, linearization method. Background: SPR reads the build-up and loss of mass on a sensor chip optically.
Experiment [4] addresses T2, Biotinylated Recombinant Human IL-7R alpha/CD127 Fc Chimera Avi-tag (human, UniProt P16871 21-239, biotin (biotinylated Avi-tag)).
T2 chain: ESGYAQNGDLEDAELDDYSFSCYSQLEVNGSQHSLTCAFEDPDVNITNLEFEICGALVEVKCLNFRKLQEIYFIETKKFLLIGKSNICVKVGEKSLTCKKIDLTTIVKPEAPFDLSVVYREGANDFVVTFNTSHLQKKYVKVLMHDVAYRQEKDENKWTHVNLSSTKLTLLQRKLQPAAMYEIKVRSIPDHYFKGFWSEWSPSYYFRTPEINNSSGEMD
Nature of the experiment: SPR.

B1: Sima3.2 (designed binder)
chain: STNISPKQGLDKAKYFSGKWYLTHVLIKDPKIVSQFCASFTPRESDGTVKIAVYLYLAIKKTSDYAIGEGKLESSGLQYTATSKVVDKKKAVLKELDERHSYTVTVLEADDSSALTHITVREGSKDYGDYYLVLTHQKDAEPSAKVKSAVTQAGLQLSQFVGTKDLGCQYDDQFTSL
As usually defined, the Kd is a measure of binding affinity in units of concentration. As usually defined, the koff is the rate constant with which the complex falls apart. In the case of B1, in experiment [1], the other amounted to 50%. In experiment [2], the Kd was determined as 14 nM and the koff came to 0.0006 s⁻¹.

B2: Sam0.7 (designed binder)
chain: LPTAEEVQKLMARYIELMDVGDIEAIVQMYADDATVEAPFGAPPIHGRERIAYFYRRMLGGGIARATLTGPVRASHNGTGAMPFRVEYVFNGQPFAMDVRVEMRFDEHGRIQTMQAYWDWVNLSVREP
Consider B2, for which, in experiment [1], the proliferation of the VEGF-sensitive leukemia cell line U937 (CellTiter-Blue, 72 h), 1 to 100 µg/mL of the binder, percent of untreated control was found to be 50%. Further, the koff in experiment [2] was 0.0309 s⁻¹. Moreover, the Kd in experiment [3] amounted to 190 nM.

B3: 5NLC scaffold (unmutated template) (other)
chain: MAQIAERLASLRSQLPPSVQLIAVSKNHPAAAIREAYAAGQRHFGENRVQEAIAKQAELTDLPDLTWHLLGKLQSNKARKAVEHFDWIHSVDSWALAERLDRIAGELGRSPKLCLQVKLLPDPNKAGWDPADLRAELPQLSQLQQVQIRGLMVIAPLGLTAAETQALFAQARTFAAELQQQAPQLRLTELSMGMSSDWPLAVAEGATWIRVGTQLFGPRSL
For the molecule B3, the koff in experiment [4] turned out to be 0.375 s⁻¹.

B4: 6YUD scaffold (unmutated template) (other)
chain: MKFAVIDRKNFTLIHFEIEKPIKPEILKEIEIPSVDTRKGVVISGRGPIWLHCFLAHKYAHTPFVAVYDPRLGAVVVQSHSELREGDVIDVVVEEILKGGVRHV
Turning to B4, the koff in experiment [4] was found to be 0.0821 s⁻¹.
